Laboratory results from patent US20230038638A1, “COMPLEMENT FACTOR I-RELATED COMPOSITIONS AND METHODS” (published 2023).

Key:
[1] = target: T1, human C4b (human) (UniProt P0C0L4)
T1 sequence: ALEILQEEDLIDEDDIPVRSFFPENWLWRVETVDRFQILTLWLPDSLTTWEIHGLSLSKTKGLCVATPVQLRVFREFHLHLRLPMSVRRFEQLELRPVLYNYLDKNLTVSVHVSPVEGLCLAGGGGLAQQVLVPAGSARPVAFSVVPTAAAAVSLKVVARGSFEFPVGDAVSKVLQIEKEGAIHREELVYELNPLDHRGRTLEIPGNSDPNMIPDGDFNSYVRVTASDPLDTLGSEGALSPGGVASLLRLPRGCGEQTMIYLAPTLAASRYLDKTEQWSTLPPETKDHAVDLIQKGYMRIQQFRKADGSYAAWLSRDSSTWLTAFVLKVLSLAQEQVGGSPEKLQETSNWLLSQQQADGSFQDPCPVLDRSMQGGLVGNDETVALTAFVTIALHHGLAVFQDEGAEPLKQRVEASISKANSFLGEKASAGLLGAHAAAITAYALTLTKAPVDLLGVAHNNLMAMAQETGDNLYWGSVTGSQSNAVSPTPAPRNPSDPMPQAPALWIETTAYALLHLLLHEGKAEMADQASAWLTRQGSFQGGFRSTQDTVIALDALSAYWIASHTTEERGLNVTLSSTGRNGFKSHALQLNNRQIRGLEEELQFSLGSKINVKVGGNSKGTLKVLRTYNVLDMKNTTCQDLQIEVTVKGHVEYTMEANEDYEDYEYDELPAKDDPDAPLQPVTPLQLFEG

[2] = target: soluble human C3b (human) (UniProt P01024)

| Substance | C4b Screen Ref Fold (fold of CFI-HSA wild type) [1] | iC3b Screen Ref Fold (fold of CFI-HSA wild type) [2] |
| --- | --- | --- |
| CFI-HSA F464L (enzyme) | 0.15 | 0 |
| CFI-HSA F464P (enzyme) | 0.15 | -0.01 |
| CFI-HSA F480Y (enzyme) | 1.84 | 1.14 |
| CFI-HSA F537Y (enzyme) | 1.64 | 1.03 |
| CFI-HSA H362T; R456I; D459W; S343R (enzyme) | 0.13 | -0.04 |
| CFI-HSA H362T; R456I; S343K (enzyme) | 0.18 | 0 |
| CFI-HSA H362T; R456I; S343R (enzyme) | 0.08 | -0.01 |
| CFI-HSA H362T; V463S; R456F; D459W; S343R (enzyme) | 0.3 | -0.01 |
| CFI-HSA H362T; V463S; R456I; D459W; S343K (enzyme) | 0.04 | -0.02 |
| CFI-HSA H362T; V463S; R456I; D459W; S343R (enzyme) | 0.26 | 0 |
| CFI-HSA H362T; V463S; R456I; S343R (enzyme) | 0.13 | -0.02 |
| CFI-HSA K14A; D425R; Y408L-N531G (enzyme) | 3.94 | 1.78 |
| CFI-HSA K504D; Y408L; N531G (enzyme) | 3.45 | 0.07 |
| CFI-HSA K504E; Y408L; N531G (enzyme) | 3.27 | 0.15 |
| CFI-HSA K534A (enzyme) | 1.14 | 1.31 |
| CFI-HSA K534D (enzyme) | 2.29 | 0.72 |
| CFI-HSA K534E (enzyme) | 0.82 | 1.19 |
| CFI-HSA K534F (enzyme) | 0.97 | 0.91 |

| Substance | C4b Screen Ref Fold (fold of CFI-HSA wild type) [1] | iC3b Screen Ref Fold (fold of CFI-HSA wild type) [2] |
| --- | --- | --- |
| CFI-HSA K534G (enzyme) | 0.17 | 0.13 |
| CFI-HSA K534H (enzyme) | 1.9 | 1.79 |
| CFI-HSA K534I (enzyme) | 3.03 | 0.83 |
| CFI-HSA K534L (enzyme) | 3.12 | 0.87 |
| CFI-HSA K534M (enzyme) | 3.89 | 0.95 |
| CFI-HSA K534N (enzyme) | 3.36 | 0.88 |
| CFI-HSA K534P (enzyme) | 0.11 | 0 |
| CFI-HSA K534R (enzyme) | 1.81 | 1.44 |
| CFI-HSA K534S (enzyme) | 2.65 | 0.92 |
| CFI-HSA K534T (enzyme) | 1.44 | 0.77 |
| CFI-HSA K534V (enzyme) | 1.96 | 1.49 |
| CFI-HSA K534W (enzyme) | 2.19 | 0.81 |
| CFI-HSA K534Y (enzyme) | 1.39 | 1.42 |
| CFI-HSA L307A (enzyme) | 4.05 | 0.73 |
| CFI-HSA L307S (enzyme) | 2.94 | 1.54 |
| CFI-HSA N531G; E457G; E461Q; R462K (enzyme) | 6.67 | 1.55 |
| CFI-HSA N531G; E457G; F464Y (enzyme) | 6.55 | 1.24 |
| CFI-HSA N531G; E457G; R462K (enzyme) | 7.02 | 1.92 |
